Changes are numbered by the printed parent chain. Names and notes keep the numbering of the source.
T1: human NgR1 alanine mutant 158, 160 (human, UniProt Q9BZR6 27-473)
T1 sequence: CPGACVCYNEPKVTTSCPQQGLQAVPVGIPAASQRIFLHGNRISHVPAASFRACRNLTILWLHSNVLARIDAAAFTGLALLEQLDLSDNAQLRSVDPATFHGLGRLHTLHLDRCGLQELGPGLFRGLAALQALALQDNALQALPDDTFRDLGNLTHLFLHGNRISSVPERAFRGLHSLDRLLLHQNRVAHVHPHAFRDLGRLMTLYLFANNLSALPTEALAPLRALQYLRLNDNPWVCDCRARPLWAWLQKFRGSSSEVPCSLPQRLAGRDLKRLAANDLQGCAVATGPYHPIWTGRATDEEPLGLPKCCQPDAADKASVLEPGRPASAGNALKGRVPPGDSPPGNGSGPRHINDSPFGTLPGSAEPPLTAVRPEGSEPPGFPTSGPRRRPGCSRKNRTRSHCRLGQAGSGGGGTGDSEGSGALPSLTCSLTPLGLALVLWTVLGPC

T2: human NgR1 alanine mutant 82, 179 (human, UniProt Q9BZR6 27-473)
T2 sequence: T1 sequence with N56A, A132Y, A134Y, N153A

T3: human NgR1 alanine mutant 133, 136 (human, UniProt Q9BZR6 27-473)
T3 sequence: T1 sequence with H107A, H110A, A132Y, A134Y

T4: human NgR1 alanine mutant 163 (human, UniProt Q9BZR6 27-473)
T4 sequence: T1 sequence with A132Y, A134Y, D137A

T5: human NgR1 alanine mutant 232, 234 (human, UniProt Q9BZR6 27-473)
T5 sequence: T1 sequence with A132Y, A134Y, Y206A, F208A

T6: human NgR1 alanine mutant 182, 186 (human, UniProt Q9BZR6 27-473)
T6 sequence: T1 sequence with A132Y, A134Y, H156A, H160A

T7: NgR expressed on COS-7 cells (species not stated)
T7 chain: T1 sequence with A132Y, A134Y

T8: AP-fused Amino-Nogo fragment B4C (a.a. 950-1018) (human, UniProt Q9NQC3 950-1018)
T8 construct: also called AmNg B4C; AP-B4C; not shown: alkaline phosphatase (AP), vector pcAP6
T8 sequence: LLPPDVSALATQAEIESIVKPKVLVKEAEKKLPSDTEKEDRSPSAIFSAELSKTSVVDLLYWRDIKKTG

T9: AP-fused Amino-Nogo fragment B4 (a.a. 877-1018) (human, UniProt Q9NQC3 877-1018)
T9 construct: also called AmNg B4; AP-B4; not shown: alkaline phosphatase (AP), vector pcAP6
T9 sequence: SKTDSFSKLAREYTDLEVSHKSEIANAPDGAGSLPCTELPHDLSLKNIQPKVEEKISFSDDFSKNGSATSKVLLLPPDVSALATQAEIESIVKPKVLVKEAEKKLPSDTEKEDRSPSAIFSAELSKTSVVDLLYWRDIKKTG

T10: AP-fused Amino-Nogo fragment B (a.a. 622-1018) (human, UniProt Q9NQC3 622-1018)
T10 construct: also called AmNg B; AP-AmNgB; not shown: alkaline phosphatase (AP), vector pcAP6
T10 sequence: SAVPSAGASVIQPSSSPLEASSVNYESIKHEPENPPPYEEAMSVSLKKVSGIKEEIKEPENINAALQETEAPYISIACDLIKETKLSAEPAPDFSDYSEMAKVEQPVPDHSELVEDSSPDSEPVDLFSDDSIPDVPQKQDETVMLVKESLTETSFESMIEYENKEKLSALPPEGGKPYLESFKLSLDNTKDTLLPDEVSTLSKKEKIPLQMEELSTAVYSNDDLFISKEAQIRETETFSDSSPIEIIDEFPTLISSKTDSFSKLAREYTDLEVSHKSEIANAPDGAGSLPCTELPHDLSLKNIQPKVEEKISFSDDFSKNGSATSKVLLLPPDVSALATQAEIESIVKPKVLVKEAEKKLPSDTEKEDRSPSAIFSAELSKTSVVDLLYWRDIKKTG

B1: AP fusion protein with the B4C fragment of Amino-Nogo-A fused directly to Nogo-66 (ligand)
chain: LLPPDVSALATQAEIESIVKPKVLVKEAEKKLPSDTEKEDRSPSAIFSAELSKTSVVDLLYWRDIKKTGRIYKGVIQAIQKSDEGHPFRAYLESEVAISEELVQKYSNSALGHVNCTIKELRRLFLVDDLVDSLK
notes: domain: Nogo-66; also called AP-B4C66; AP-B4C-66; not shown: alkaline phosphatase (AP), vector pcAP6
B2: NgR expressed on COS-7 cells (species not stated) (receptor)
chain: T1 sequence with A132Y, A134Y

Assays:
[1] = biological target: T1, human NgR1 alanine mutant 158, 160; assay: AP-ligand binding, COS-7
[2] = biological target: T2, human NgR1 alanine mutant 82, 179; assay: AP-ligand binding, COS-7
[3] = biological target: T3, human NgR1 alanine mutant 133, 136; assay: AP-ligand binding, COS-7
[4] = biological target: T4, human NgR1 alanine mutant 163; assay: AP-ligand binding, COS-7
[5] = biological target: T5, human NgR1 alanine mutant 232, 234; assay: AP-ligand binding, COS-7
[6] = biological target: T6, human NgR1 alanine mutant 182, 186; assay: AP-ligand binding, COS-7
[7] = biological target: T7, NgR expressed on COS-7 cells (species …); assay: AP-ligand binding to NgR-expressing COS-7 cells (Scatchard)
[8] = biological target: T8, AP-fused Amino-Nogo fragment B4C (a.a. …); assay: AP fusion on NgR-expressing COS-7 cells
Source text: (§1) Several alkaline phosphatase (AP) fusion proteins containing various Nogo-A segments derived from regions between the amino terminus and the first hydrophobic segment were examined to identify the mechanism of Amino-Nogo-A action. To generate additional AP fusion proteins, human amino Nogo fragments were amplified and ligated to the pcAP6 vector digested with restriction enzymes EcoRI and XhoI as described (Fournier, A. E., et al., Nature 409:341-346 (2001)). Plasmids were then transfected into HEK293T cells and conditioned media were collected after 7 days. None of these fragments bind with high affinity to non-transfected COS-7 cells. […] This binding is saturable with a Kd indistinguishable from that for AP-Nogo-66 association with NgR (Table I). To better define the region responsible for Amino-Nogo interaction with NgR, a range of truncation mutants of Amino-Nogo were examined as AP fusion proteins.
(§2) Binding Kds for AP fused Amino-Nogo fragments were measured by applying conditioned media containing AP fusion protein to NgR expressing COS-7 cells. Bound AP was stained and measured.

[9] = biological target: B1; assay: AP fusion on NgR-expressing COS-7 cells
Source text: as §1, §2

[10] = biological target: T9, AP-fused Amino-Nogo fragment B4 (a.a. …); assay: AP fusion on NgR-expressing COS-7 cells
Source text: as §1, §2

[11] = biological target: T10, AP-fused Amino-Nogo fragment B (a.a. …); assay: AP fusion on NgR-expressing COS-7 cells
Source text: as §1, §2

binding result [1] | binding result [2] | binding result [3] | binding result [4] | binding result [5] | binding result [6] | Kd [7] | Kd [8] | Kd [9] | Kd [10] | Kd [11] | Binder
no binding | no binding | no binding | no binding | no binding | no binding | 0.42 nM | – | – | – | – | B1
– | – | – | – | – | – | – | 3.51 nM | < 1 nM | 9.01 nM | 6.66 nM | B2

— US20090111753A1, “Nogo-A Polypeptide Fragments, Variant Nogo Receptor-1 Polypeptides, and Uses Thereof” (Yale University, priority 2004, published 2009)
